± gives the uncertainty stated by the source.

This data set is described as follows: abundance fitness (aPCA) (normalised: wild type 0, dead -1); higher = more abundant; growth selection in yeast, the domain comes from the species named. The conditions noted are these: Homo sapiens.
In turn, “DnaJ homolog subfamily B member 1 R30K, P25685” showed an abundance fitness of -0.086 ± 0.098.

With “DnaJ homolog subfamily B member 1 R30L, P25685”, the abundance fitness is 0.081 ± 0.067.

Take “DnaJ homolog subfamily B member 1 R30M, P25685”: the abundance fitness was determined as 0.104 ± 0.089.

In turn, “DnaJ homolog subfamily B member 1 R30N, P25685” gave an abundance fitness of 0.014 ± 0.1.

In turn, “DnaJ homolog subfamily B member 1 R30Q, P25685” had an abundance fitness of 0.087 ± 0.11.

Consider “DnaJ homolog subfamily B member 1 R30S, P25685”, for which the abundance fitness is -0.024 ± 0.073.

As for “DnaJ homolog subfamily B member 1 R30T, P25685”, the abundance fitness was -0.026 ± 0.1.

Regarding “DnaJ homolog subfamily B member 1 R30Y, P25685”, the abundance fitness came out at 0.131 ± 0.087.

Substance “DnaJ homolog subfamily B member 1 R59A, P25685” had an abundance fitness of -0.051 ± 0.086.

With “DnaJ homolog subfamily B member 1 R59C, P25685”, the abundance fitness was -0.128 ± 0.14.

As to “DnaJ homolog subfamily B member 1 R59D, P25685”, the abundance fitness is 0.095 ± 0.21.

“DnaJ homolog subfamily B member 1 R59E, P25685”: the abundance fitness is 0.026 ± 0.099.

“DnaJ homolog subfamily B member 1 R59F, P25685” came in with an abundance fitness of -0.045 ± 0.15.

With “DnaJ homolog subfamily B member 1 R59G, P25685”, the abundance fitness was -0.065 ± 0.084.

“DnaJ homolog subfamily B member 1 R59H, P25685” returned an abundance fitness of -0.167 ± 0.11.

Take “DnaJ homolog subfamily B member 1 R59I, P25685”: the abundance fitness was -0.232 ± 0.15.

With “DnaJ homolog subfamily B member 1 R59K, P25685”, the abundance fitness was -0.104 ± 0.11.

Take “DnaJ homolog subfamily B member 1 R59L, P25685”: the abundance fitness was -0.186 ± 0.099.

Substance “DnaJ homolog subfamily B member 1 R59M, P25685” gave an abundance fitness of -0.256 ± 0.19.

Substance “DnaJ homolog subfamily B member 1 R59N, P25685” came in with an abundance fitness of -0.068 ± 0.14.

In the case of “DnaJ homolog subfamily B member 1 R59P, P25685”, the abundance fitness is -0.4 ± 0.15.

In turn, “DnaJ homolog subfamily B member 1 R59Q, P25685” gave an abundance fitness of -0.194 ± 0.13.

“DnaJ homolog subfamily B member 1 R59S, P25685” registered an abundance fitness of -0.036 ± 0.081.

In turn, “DnaJ homolog subfamily B member 1 R59T, P25685” yielded an abundance fitness of 0.07 ± 0.1.

Substance “DnaJ homolog subfamily B member 1 R59V, P25685” registered an abundance fitness of -0.059 ± 0.071.

As for “DnaJ homolog subfamily B member 1 R59W, P25685”, the abundance fitness is -0.186 ± 0.14.

With “DnaJ homolog subfamily B member 1 R61A, P25685”, the abundance fitness is -0.596 ± 0.16.

“DnaJ homolog subfamily B member 1 R61C, P25685” had an abundance fitness of -0.325 ± 0.15.

“DnaJ homolog subfamily B member 1 R61D, P25685” registered an abundance fitness of -0.668 ± 0.18.

“DnaJ homolog subfamily B member 1 R61E, P25685” gave an abundance fitness of -0.362 ± 0.11.

“DnaJ homolog subfamily B member 1 R61F, P25685” came in with an abundance fitness of -0.756 ± 0.18.

Turning to “DnaJ homolog subfamily B member 1 R61G, P25685”, the abundance fitness was -0.406 ± 0.1.

For “DnaJ homolog subfamily B member 1 R61I, P25685”, the abundance fitness was -0.584 ± 0.13.

With “DnaJ homolog subfamily B member 1 R61K, P25685”, the abundance fitness is -0.247 ± 0.16.

For “DnaJ homolog subfamily B member 1 R61L, P25685”, the abundance fitness was -0.527 ± 0.076.

Take “DnaJ homolog subfamily B member 1 R61M, P25685”: the abundance fitness is -0.495 ± 0.14.

“DnaJ homolog subfamily B member 1 R61N, P25685” registered an abundance fitness of -0.425 ± 0.1.

“DnaJ homolog subfamily B member 1 R61Q, P25685” showed an abundance fitness of -0.336 ± 0.093.

For “DnaJ homolog subfamily B member 1 R61S, P25685”, the abundance fitness was -0.528 ± 0.068.

Substance “DnaJ homolog subfamily B member 1 R61V, P25685” registered an abundance fitness of -0.429 ± 0.077.

As to “DnaJ homolog subfamily B member 1 R61W, P25685”, the abundance fitness was -0.897 ± 0.14.

Substance “DnaJ homolog subfamily B member 1 R61Y, P25685” registered an abundance fitness of -0.606 ± 0.13.

As to “DnaJ homolog subfamily B member 1 S16A, P25685”, the abundance fitness is -0.167 ± 0.066.

In turn, “DnaJ homolog subfamily B member 1 S16C, P25685” displayed an abundance fitness of -0.185 ± 0.077.

The substance “DnaJ homolog subfamily B member 1 S16D, P25685” registered an abundance fitness of -0.174 ± 0.09.

The substance “DnaJ homolog subfamily B member 1 S16G, P25685” returned an abundance fitness of -0.074 ± 0.055.

“DnaJ homolog subfamily B member 1 S16H, P25685” showed an abundance fitness of -0.24 ± 0.13.

The substance “DnaJ homolog subfamily B member 1 S16I, P25685” came in with an abundance fitness of -0.371 ± 0.11.

Turning to “DnaJ homolog subfamily B member 1 S16K, P25685”, the abundance fitness is -0.188 ± 0.12.

On to “DnaJ homolog subfamily B member 1 S16L, P25685”, for which the abundance fitness is -0.297 ± 0.053.

“DnaJ homolog subfamily B member 1 S16M, P25685”: the abundance fitness is -0.258 ± 0.073.

“DnaJ homolog subfamily B member 1 S16N, P25685” had an abundance fitness of -0.059 ± 0.1.

On to “DnaJ homolog subfamily B member 1 S16P, P25685”, for which the abundance fitness is -0.123 ± 0.062.

For “DnaJ homolog subfamily B member 1 S16R, P25685”, the abundance fitness is -0.158 ± 0.065.

Substance “DnaJ homolog subfamily B member 1 S16T, P25685” returned an abundance fitness of -0.057 ± 0.092.

The substance “DnaJ homolog subfamily B member 1 S16V, P25685” had an abundance fitness of -0.301 ± 0.066.

Consider “DnaJ homolog subfamily B member 1 S16Y, P25685”, for which the abundance fitness is -0.676 ± 0.073.

“DnaJ homolog subfamily B member 1 S56A, P25685” displayed an abundance fitness of -0.142 ± 0.085.

Substance “DnaJ homolog subfamily B member 1 S56C, P25685” registered an abundance fitness of 0.022 ± 0.16.

Turning to “DnaJ homolog subfamily B member 1 S56D, P25685”, the abundance fitness was -0.551 ± 0.094.

The substance “DnaJ homolog subfamily B member 1 S56E, P25685” gave an abundance fitness of -0.496 ± 0.079.

In turn, “DnaJ homolog subfamily B member 1 S56F, P25685” returned an abundance fitness of -0.526 ± 0.12.

“DnaJ homolog subfamily B member 1 S56G, P25685” yielded an abundance fitness of 0.002 ± 0.079.

Consider “DnaJ homolog subfamily B member 1 S56H, P25685”, for which the abundance fitness is -0.217 ± 0.16.

“DnaJ homolog subfamily B member 1 S56I, P25685” came in with an abundance fitness of -0.174 ± 0.36.

In turn, “DnaJ homolog subfamily B member 1 S56K, P25685” yielded an abundance fitness of -0.051 ± 0.17.

Substance “DnaJ homolog subfamily B member 1 S56M, P25685” yielded an abundance fitness of -0.171 ± 0.095.

As for “DnaJ homolog subfamily B member 1 S56N, P25685”, the abundance fitness was -0.343 ± 0.15.

Take “DnaJ homolog subfamily B member 1 S56P, P25685”: the abundance fitness was -0.99 ± 0.1.

“DnaJ homolog subfamily B member 1 S56Q, P25685” had an abundance fitness of -0.25 ± 0.14.

On to “DnaJ homolog subfamily B member 1 S56R, P25685”, for which the abundance fitness is -0.226 ± 0.091.

“DnaJ homolog subfamily B member 1 S56T, P25685” registered an abundance fitness of -0.111 ± 0.087.

As to “DnaJ homolog subfamily B member 1 S56V, P25685”, the abundance fitness was -0.071 ± 0.066.

In turn, “DnaJ homolog subfamily B member 1 S56W, P25685” showed an abundance fitness of -0.853 ± 0.11.

Take “DnaJ homolog subfamily B member 1 S56Y, P25685”: the abundance fitness is -0.493 ± 0.11.

“DnaJ homolog subfamily B member 1 T8A, P25685” showed an abundance fitness of -0.143 ± 0.079.

On to “DnaJ homolog subfamily B member 1 T8C, P25685”, for which the abundance fitness is -0.096 ± 0.094.

Consider “DnaJ homolog subfamily B member 1 T8D, P25685”, for which the abundance fitness was -0.101 ± 0.083.

Consider “DnaJ homolog subfamily B member 1 T8E, P25685”, for which the abundance fitness was -0.239 ± 0.11.

“DnaJ homolog subfamily B member 1 T8F, P25685” returned an abundance fitness of -0.352 ± 0.17.

Substance “DnaJ homolog subfamily B member 1 T8G, P25685” had an abundance fitness of -0.469 ± 0.099.

Regarding “DnaJ homolog subfamily B member 1 T8H, P25685”, the abundance fitness is 0.211 ± 0.46.

For the substance “DnaJ homolog subfamily B member 1 T8I, P25685”, the abundance fitness came out at 0.036 ± 0.088.

“DnaJ homolog subfamily B member 1 T8L, P25685” showed an abundance fitness of -0.101 ± 0.071.

In turn, “DnaJ homolog subfamily B member 1 T8M, P25685” registered an abundance fitness of -0.121 ± 0.17.

Regarding “DnaJ homolog subfamily B member 1 T8N, P25685”, the abundance fitness is -0.303 ± 0.18.

As for “DnaJ homolog subfamily B member 1 T8P, P25685”, the abundance fitness was -0.333 ± 0.067.

As for “DnaJ homolog subfamily B member 1 T8Q, P25685”, the abundance fitness is -0.165 ± 0.12.

“DnaJ homolog subfamily B member 1 T8S, P25685” had an abundance fitness of -0.149 ± 0.093.

Regarding “DnaJ homolog subfamily B member 1 T8V, P25685”, the abundance fitness is -0.106 ± 0.058.

“DnaJ homolog subfamily B member 1 T8W, P25685” returned an abundance fitness of -0.281 ± 0.1.

For the origin of these results see the Human Domainome abundance scans (Beltran et al. 2025).
